Target: hFc-tagged NKG2A/CD94 protein (NKG2A/CD94-hFc), immunogen A (human) (UniProt P26715)
Assay: ELISA on NKG2A/CD94-hFc protein (immunogen A), OD 450 nm

Chain of hFc-tagged NKG2A/CD94 protein (NKG2A/CD94-hFc), immunogen A (human) (P26715 94-233 limits assumed, chain 1 of 2): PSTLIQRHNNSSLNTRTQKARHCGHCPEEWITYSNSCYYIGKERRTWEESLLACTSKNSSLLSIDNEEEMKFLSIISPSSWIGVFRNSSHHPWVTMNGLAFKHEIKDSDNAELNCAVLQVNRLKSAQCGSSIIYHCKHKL
Chain of hFc-tagged NKG2A/CD94 protein (NKG2A/CD94-hFc), immunogen A (human) (chain, as listed by the source limits assumed, chain 2 of 2): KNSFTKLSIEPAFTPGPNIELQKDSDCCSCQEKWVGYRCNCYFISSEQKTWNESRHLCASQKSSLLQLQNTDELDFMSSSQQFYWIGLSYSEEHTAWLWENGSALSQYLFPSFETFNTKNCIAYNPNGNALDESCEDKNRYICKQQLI

Substance	EC50 (read off the curve) [pM]
control antibody-1	60
control antibody-2	100

Source: US20220259306A1
